The results in this text go back to the DeepSol protein solubility set.

This data set can be described thus: soluble on expression in E. coli; label from the status in PepcDB or PDB records.
In the case of “MKDSAPELNVSSSETEEDKEEAKPDGEKDPDFNQSNGGTKRQKISHQNYIAYQKQVIRRSMRHRKVRGEKALLVSANQTLKELKIQIMHAFSVAPFDQNLSIDGKILSDDCATLGTLGVIPESVILLKADEPIADYAAMDDVMQGKDEFVLGIC”, the “soluble on expression in E. coli” value is on record as “not soluble”. For the sequence “MANLPSSSGMFSRLLANVFNTTVASRCSASGRWWPQPDRRFTTKSDEKSSLEPKNTNETDVIITQQGVKLSKSNAAPVYYKPKSTGPGYELVEHKKGEMIANYTLFEAAINKSKVPWVNYDGLTSEERTIHMAHTRAINDRKLTYIDPKTGYSVFTISHHLQKGKCCGNGCRHCAYEMINASDEIRSQKVWNGAFYV”, the “soluble on expression in E. coli” value is “not soluble”. “MSLRVLKFGGTSVANAERFLRVADILESNARQGQVATVLSAPAKITNHLVAMIEKTISGQDALPNISDAERIFAELLTGLAAAQPGFPLAQLKTFVDQEFAQIKHVLHGISLLGQCPDSINAALICRGEKMSIAIMAGVLEARGHNVTVIDPVEKLLAVGHYLESTVDIAESTRRIAASRIPADHMVLMAGFTAGNEKGELVVLGRNGSDYSAAVLAACLRADCCEIWTDVDGVYTCDPRQVPDARLLKSMSYQEAMELSYFGAKVLHPRTITPIAQFQIPCLIKNTGNPQAPGTLIGASRDEDELPVKGISNLNNMAMFSVSGPGMKGMVGMAARVFAAMSRARISVVLITQSSSEYSISFCVPQSDCVRAERAMQEEFYLELKEGLLEPLAVTERLAIISVVGDGMRTLRGISAKFFAALARANINIVAIAQGSSERSISVVVNNDDATTGVRVTHQMLFNTDQVIEVFVIGVGGVGGALLEQLKRQQSWLKNKHIDLRVCGVANSKALLTNVHGLNLENWQEELAQAKEPFNLGRLIRLVKEYHLLNPVIVDCTSSQAVADQYADFLREGFHVVTPNKKANTSSMDYYHLLRHAAEKSRRKFLYDTNVGAGLPVIENLQNLLNAGDELMKFSGILSGSLSYIFGKLDEGMSFSEATTLAREMGYTEPDPRDDLSGMDVARKLLILARETGRELELADIEIEPVLPAEFNAEGDVAAFMANLSQLDDLFAARVAKARDEGKVLRYVGNIDEDGVCRVKIAEVDGNDPLFKVKNGENALAFYSHYYQPLPLVLRGYGAGNDVTAAGVFADLLRTLSWKLGVEGHHHHHH”: the “soluble on expression in E. coli” value is “soluble”. With “MEQLTKNQRKKRDEIEAGKSYCSRRFGGATCDDKSAQIYARFDKNDWRIQPAEFYRFHDAEVNTFGYF”, the “soluble on expression in E. coli” value is “soluble”. “MKTEKEEAEEEPFVIRPYLKSELAHKYNPHLPLIYAMQKLRGWIRNNKELYDAMYSGGEGKNDHAYSSRQVRLIVKFLDEP”: the “soluble on expression in E. coli” value is “not soluble”.

As to “MSATASVATRHDWSLAEVRALFEQPFNDLLFQAQTVHRAHFDPNRVQVSTLLSIKTGACPEDCKYCPQSGHYNTGLDKEKLMEVQKVLEAAAEAKAIGSTRFCMGAAWKHPSAKDMPYVLEMVKGVKKLGLETCMTLGRLTQEQTQALADAGLDYYNHNLDTSPEFYGNIITTRTYSERLQTLAYVREAGMKICSGGILGMGESVDDRAGLLIQLANLPEHPESVPINMLVKVKGTPLAEEKDVDPFDFIRTLAVARIMMPKSHVRLSAGREQMNEQMQALAFMAGANSIFYGEKLLTTKNPQAEKDMQLFARLGIKPEEREEHADEVHQAAIEQALVEQRESKLFYNAASA”, the “soluble on expression in E. coli” value is “not soluble”. In the case of “MAAPVAPSEPQASRAPQPPVCLLVLGMAGSGKTTFVQRLTGHLHNKGCPPYVINLDPAVHEVPFPANIDIRDTVKYKEVMKQYGLGPNGGIVTSLNLFATRFDQVMKFIEKAQNTFRYVLIDTPGQIEVFTWSASGTIITEALASSFPTVVIYVMDTSRSTNPVTFMSNMLYACSILYKTKLPFIVVMNKTDIIDHSFAVEWMQDFEAFQDALNQETTYVSNLTRSMSLVLDEFYSSLRVVGVSAVVGTGFDELCTQVTSAAEEYEREYRPEYERLKKSLANAQSNQQKEQLERLRKDMGSVALDPEAGKGNASPVLDPSDLILTRGTLDEEDEEADSDTDDIDHRVTEESREEPAFQNFMEESMAHWKRNK”, the “soluble on expression in E. coli” value is given as “not soluble”. For the sequence “MVHKSVESPAFSASIEDYALIGDQQSAALVARDGSIDWLCLPRFDSPACFAALLGDEHNGKWRIAPKGAGPCTRRAYRTDSLVLDSEWDTPEGTLRVTDLMPQRDSAPDLVRIVEGLRGRVTVRSAIRLRFDYGLEHHHHHH”, the “soluble on expression in E. coli” value is on record as “soluble”. On to “MQSWKERRDFNIVKQDLDFSCGAASVVTLLNNFYGQKLTEEDVLKKLDKEQMPASFEDMRRIMPDLGFEAKGYALSFEQLAQLQIPVIVYLKYRKDDHFSVLRGIDGNTVLLADPSLGHVSMSRAQFLDAWQTREGNLAGKILAVVPKGRDAGGDKAFFTRSPKRQTEFAVGQVKWWRAY”, for which the “soluble on expression in E. coli” value is recorded as “not soluble”. “SNAMNHTADNCIFCKIIDGQILCSKVYEDEHVLAFLDISQVTKGHTLVIPKVHKQDIFALTPEIASHIFSVVPKIANAIKAEFNPVGFNLLNNNGEKAGQTVFHFHLHLIPRYGENDGFGAVWKSHQNEYTMENLQNIASTIANSVK”: the “soluble on expression in E. coli” value is on record as “soluble”. Turning to “MLNKTNTWTPSLFRDYKNAEHDACGIVSVMEKRKIPTKENIDLCIQSLVKMNHRAGFINGEGDGIGIHIDVPKALWNEKLKSSGYNPTIVDHPHFIVGHFFLNKNENIVDLKNHIRTQLNNENFAILFESDNVINSDALGPLGKQEEPLFWQVALIAENEVVNIEQTLFSVTIKIEENEAIHVASLSRDHVVYKVLGAGDTLVAYYNDLQHPLIASTMTLGHNRYSTNTLSNFFRVQPFSILGHNGEINTIAKLRDQAEMIHVPLTAGGSDSQDLNRTLETLLVQYGYSLFEAMDILFPPIINEIKLYETHLQDLYTYIREAWGHFAQGPAGIISRYKDEAVFSVDSLGLRPVWKVEIESSYIFSSEPGVVSPTEYVAEPKPLAPGEKVGLKWNEQDELVLYEHDDYQTQVYNRFKKKVDVTNYHLHLSIPKTKEIPDACDSMQVETKQYVAFGWDREHIQLLEQMATKGVEPIRSLGHDSPLAALDTDRRNIADFIKESVAVVTNPAIDRDREVEHFSTRTILGERPSLLSDAKKPFVVEMLSPIILEGSVAQSIAQELHTITYEQLIELFNTHSSIATISATFSQAETLQCALSRISSEAITAVNDGASLLLIDDADAHLNERLWIDPHLVTAKVHQVLSENKLRRNCSLVIRSGALRSLHDIVTLHGLGADSINPYLLFATVNDGTKTPITNLYNALNKGLEKVISTIGIHELRGYGRLYSSIGLHEEIANILQITNFLGSNDLAFSLESLAEDAQMRADDYNDPKVRIRKSFHIFPRIWKAIGDVAKGNSYDDYRDKLSELEENNPIAIRHLIQTKETKHVIPTEEVSISIQNHDLPFIISSMSFGSQNEIAFRAYAEAADQLNMISLNGEGGEIKDMIGKYPHTRGQQVASGRFGVNAELLNSSNLIEIKIGQGAKPGEGGHLPGSKVTAKIAEARNATIGSDLISPSNNHDIYSIEDLAQMITEIKTANQLAKVAVKVPVVPNIGTIAVGIAKAGADFINISGFDGGTGAARIHALQHVGLPVEIGVKAAHNALLEANMRHNVEIWADGGIRSVNDALKIMLLGANRIGFGTLSMIAIGCTTCRGCHLDTCHVGIATQIESEAQAKEHGLRRFVPRELESAVAGLLHLFTTFGEELKRLTGNLGYTNLQEIVGRSDLLEQVRGKNLLNLCNLLQTIEHPSVIKTEHVLEKQFEPIHSPHSKELVGVGVEQRVMGGLESCYRVRSKLYEDTKLEPLTLKYTNGSIPGNGLGAYNSENLFIHVNGGAQDGIGKTSFGGGIYITKAKGKDGLYYNGSVGKGFGYGAQKGALYVQGNADARAGIRLSGADMIIGGRMTKPLREKEQGNIGAYSNIKGFAFEYMTNGRALVLGDPGPWICAGMTGGVVYLRHDSSLGLTEQALKRRIAKGANVTLQPISKNGVRDVNELLLDYIRVLNEHEQYEEVALLTPLLDDMQQQFFEIIPKKEQADPSISTE”, the “soluble on expression in E. coli” value is given as “not soluble”. “MGIRLKDLSKLGYRDNVARSLVVDIVGKYCKHDTKEQIAMTLSNILEHPESYKNNEIWSKLAERLSPTVLAKEFVAYDLREDPLMYKTYGGKFIETLAKQQMNLAMRLPVTVGGALMPDAHAGYGLPIGGVLATDNAVIPYAVGVDIGCRMSLTVFDAKADFLKRYSYQIKEALKDFTHFGMDGGLGFEQEHEVLDREEFRLTPLLKDLQGKAVRQLGSSGGGNHFVEFGEIALQADNVLNLPEGSYVALLSHSGSRGLGAAIAKHYSLLAREVCKLPREAQHFAWLSLDSEEGQEYWMSMNLAGDYARACHERIHLNLSKALGLKPVANVNNHHNFAWKEEIAPGRMAIVHRKGATPAQKGQAGLIPGSMATAGYLVCGKGVEESLCSASHGAGRAMSRQKAKESFTQSALKKMLSQADVTLIGGSIEEIPLAYKDIDRVMYTQETLVEVQGRFMPRIVRMNKE”: the “soluble on expression in E. coli” value was “not soluble”. With “MKALALIAHDAKKDEMVAFCLRHKDVLARYPLLATGTTGARIQEATGLAVERVLSGPLGGDLQIGARVAEGKVLAVVFLQDPLTAKPHEPDVQALMRVCNVHGVPLATNLVAAEALIAWIRKGTPQ”, the “soluble on expression in E. coli” value is recorded as “soluble”. As for “MTAFEEFGIIPELSDALSSLNWTLPTAVQSEAIPAILGGADALIAAETGSGKTGAFSLPIAQIVWERRKSAEKSQNSGQKPENSREFQLNREDRDVSLQIDKTGLNCESRVAKEWHGARATAGLYGNGKYYYEVTVTRDGLCRVGWATLSGSLKIGTDFESFGYGGTGKKSFGKKFDDYGTSFTTNDVLGCFLDLDELKIWWSKNGVQFPVAYQIDKKFKTAATCLYPAILCQNSGLGVNFGGSAAFKYPPGTQYVAVAQAEDGNLKWWSAAEQLSIDSSTPLCVILEPTRELVQQTFQNIQTFASVLDSPKIRCVTLAAGENMNQILRTLETGCDIVVGTPSRVFDLIHTGKLATKNLQFVVIDEIDQFLAGKNNCAHQIESIFRVLPLVAQDGTRRQVIACSATLHNFEVCRFADRHMSFPQWIDLKGADCVSADVHHVVCHVDASEDKQWIRQMHQQVHLEDDHVHDGDQIRPGTTDKDTISLGTKILKGIYVVRAIHALQMDKAIVFCRTKQQCDHMEHFLQQNNLSAACLHGDRSAEERQSSLEGFKKGIIRFLVCSDVVARGLDVQGVPFVISVTLPDEKSMYVHRIGRVGRAERMGLSISLVSEYEEKAWYHKCRSRGVNCTNTKDISKGGCTIWLQEKKMLGEIEEHLGATISTVDSDFNVPVDEFDGKVVYGERRTGGANFDTHVLQLASSASQLADLETKMQLEYLNNNRHVFEIHSM”, the “soluble on expression in E. coli” value is “not soluble”. The value for “MLKRTPLFPVYARYGAKTIEFGGWEMPVQFSSIKEEHEAVRTRAGLFDVSHMGEIVVRGRGSLAFLQKLMTNDVAKLRPGRAQYTLMCYEDGGTVDDLLIYQKGENDYLLVVNAANTEKDFAWLSGHVEGDVELQDVSSETAQLALQGPAAERVLQRLTDFDLAALRPFSFADGVEVSGVKALVSRTGYTGEDGFELYCKAEDAAALWEAILAAGARDGVLPCGLGARDTLRFEACLPLYGQELSDSISPVEAGLGFAVKTEKEPPFIGQAVLKRQKEEGPPRRLVGIEMIDRGIPRHGYLVFADGEEVGFVTTGTQSPTLKKNIGLALVKADVAAIGREVEVDIRGKRLKANIVPIPFYRRAK” was “not soluble”; that for “MSQIKNYMEEVVFSLMKDVLSDINVCSCEKCRMDIAAIALNNLPPKYIVTDKGELYSKVDSLKQQFEVDVISALAKAAVIVKRNPRHE” was “not soluble”; that for “MDKKPSILIFIVAYNAESTIENVLMRIPADLLDDFDAEVLVIDDQSSDDTVLRCAETIQSGKIRFKTNVLVNPENQGYGGNQKVGYQYAIEHDFDCVALLHGDGQYAPEYLRDLITPVTKGEAEAVFGSRMMTPFGALKGGMPAYKFVGNKILTLFQNIMLKTSLSEFHSGYRAYSVKALKQIPFHLNTPDFHFDTEIIIQLILWGFRIAERPIPTYYGDEICYVNGLKYALDVVITTTKARMQRLGLFHECKYEVIHPHNSNGYPEAKLSIKSPSGNRILEHHHHHH” was “not soluble”.
